The assay addresses Fyn SH3 domain, His6-tagged SUMO fusion (human, UniProt P06241 82-143). The experiment in a line: ELISA.

The source of these data is PMC3319870 (New Biotechnology, 2011).

Fyn SH3 domain, His6-tagged SUMO fusion, sequence (P06241 82-143): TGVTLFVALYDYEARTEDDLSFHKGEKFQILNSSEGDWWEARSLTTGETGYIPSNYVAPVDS

In the case of VSLARRPLPPLPGGK [proline-rich peptide VSLARRPLPPLPGGK], the IC50 was roughly 440 nM.
